{
  "source": "patent US7713932B2",
  "about": "“Calcitonin drug-oligomer conjugates, and uses thereof” (Biocon Limited, priority 2001, dated 2010)",
  "assay_type_in_all_cases": "in vitro ADME",
  "key": {"[1]": {"assay": "Enzymatic stability: 0.5 U/mL chymotrypsin digest", "settings": "chymotrypsin 0.5 U/mL, pH 7.4, Non-Formulated, replicate columns, read-out: % Remaining Following 0.5 U/mL Chymotrypsin Digest", "description": "(§1) Compounds, supplied as lyophilized powders, are resuspended in 10 mM phosphate buffer pH 7.4 and then submitted for concentration determination by HPLC. The phosphate buffer is used to create a solution with a pH that is optimum for activity of each particular gut enzyme. Aliquots of the compound thus prepared are transferred to 1.7 mL microcentrifuge tubes and shaken in a 37° C. water bath for 15 minutes to allow compounds to equilibrate to temperature. After 15 minutes, 2 μL of the appropriate concentrated gut enzyme is added to each tube to achieve the final concentration desired. Chymotrypsin and trypsin are resuspended in 1 mM HCl. Also, as a control, compounds are treated with 2 μL of 1 mM HCl. Immediately following additions, 100 μL of sample is removed from the control tube and quenched with either 25 μL of chymotrypsin/trypsin quenching solution (1:11% TFA:Isopropanol). This sample will serve as T=0 min. A sampling procedure is repeated at various time intervals depending on the gut enzyme used. Chymotrypsin has 15, 30 and 60 minute samples. Trypsin has 30, 60, 120 and 180 minute samples. Once all points have been acquired, a final sample is removed from the control tube to make sure that observed degradation is not temperature or buffer related. The chymotrypsin and trypsin samples may be collected directly into HPLC vials. RP-HPLC (acetonitrile gradient) is used to determine AUC for each sample and % degradation is calculated based from the T=0 min control. The results are provided below in Tables 1 to 4."}, "Chymotrypsin": {"test_system": "Chymotrypsin", "assay": "Enzymatic stability: 0.5 U/mL chymotrypsin digest", "settings": "for % Remaining Following 0.5 U/mL Chymotrypsin Digest: replicate columns; for % Remaining, Control: Control tube (1 mM HCl, no enzyme)", "description": "as §1"}, "[2]": {"assay": "Enzymatic stability: 1 U/mL trypsin digest", "settings": "trypsin 1 U/mL, pH 7.4, Non-Formulated, replicate columns, read-out: % Remaining following 1 U/mL Trypsin Digest", "description": "as §1"}, "Trypsin": {"test_system": "Trypsin", "assay": "Enzymatic stability: 1 U/mL trypsin digest", "settings": "for % Remaining, Control: Control tube (1 mM HCl, no enzyme); for % Remaining following 1 U/mL Trypsin Digest: Non-Formulated, replicate columns", "description": "as §1"}},
  "note": "Several values for one entry are separate records, joined by “and”; a condition that tells them apart may be missing. Equal values may be shown once.",
  "data": [
    {"smiles": "COCCOCCOCCOCCOCCOCCOCCOCCCCCCCC(=O)NCCCC[C@H](NC(=O)CNC(=O)[C@H](CC(C)C)NC(=O)[C@@H](NC(=O)[C@@H]1CSSC[C@H](N)C(=O)N[C@@H](CO)C(=O)N[C@@H](CC(N)=O)C(=O)N[C@@H](CC(C)C)C(=O)N[C@@H](CO)C(=O)N[C@@H]([C@@H](C)O)C(=O)N1)C(C)C)C(=O)N[C@@H](CC(C)C)C(=O)N[C@@H](CO)C(=O)N[C@@H](CCC(N)=O)C(=O)N[C@@H](CCC(=O)O)C(=O)N[C@@H](CC(C)C)C(=O)N[C@@H](Cc1c[nH]cn1)C(=O)N[C@@H](CCCCNC(=O)CCCCCCCOCCOCCOCCOCCOCCOCCOCCOC)C(=O)N[C@@H](CC(C)C)C(=O)N[C@@H](CCC(N)=O)C(=O)N[C@H](C(=O)N[C@@H](Cc1ccc(O)cc1)C(=O)N1CCC[C@H]1C(=O)N[C@@H](CCCNC(=N)N)C(=O)N[C@H](C(=O)N[C@@H](CC(N)=O)C(=O)N[C@H](C(=O)NCC(=O)N[C@@H](CO)C(=O)NCC(=O)N[C@H](C(=O)N1CCC[C@H]1C(N)=O)[C@@H](C)O)[C@@H](C)O)[C@@H](C)O)[C@@H](C)O", "values": [
      {"measurement": "remaining at 0.25 h", "setting": "[1]; 15 min", "result": 63, "unit": "%"},
      {"measurement": "remaining at 0.5 h", "setting": "[1]; 30 min", "result": 34, "unit": "%"},
      {"measurement": "% Remaining Following 0.5 U/mL Chymotrypsin Digest", "setting": "Chymotrypsin; Buffered Formulation, 15 min", "result": "88% (2×) and 86%"},
      {"measurement": "% Remaining Following 0.5 U/mL Chymotrypsin Digest", "setting": "Chymotrypsin; Buffered Formulation, 30 min", "result": "73% and 88% and 86%"},
      {"measurement": "% Remaining Following 0.5 U/mL Chymotrypsin Digest", "setting": "Chymotrypsin; Buffered Formulation, 60 min", "result": "61% and 69% and 84%"},
      {"measurement": "% Remaining, Control", "setting": "Chymotrypsin; Buffered Formulation, 60 min", "result": "116% and 104% and 101%"},
      {"measurement": "% Remaining, Control", "setting": "Chymotrypsin; Non-Formulated, 60 min", "result": "104% and 88% and 97% and 103%"},
      {"measurement": "remaining at 0.5 h", "setting": "[2]; 30 min", "result": 87, "unit": "%"},
      {"measurement": "remaining at 1 h", "setting": "[2]; 60 min", "result": 78, "unit": "%"},
      {"measurement": "remaining at 2 h", "setting": "[2]; 120 min", "result": 72, "unit": "%"},
      {"measurement": "remaining at 3 h", "setting": "[2]; 180 min", "result": 81, "unit": "%"},
      {"measurement": "% Remaining, Control", "setting": "Trypsin; 60 min", "result": "103% and 100%"},
      {"measurement": "% Remaining, Control", "setting": "Trypsin; 120 min", "result": "106% and 105% and 99%"},
      {"measurement": "% Remaining, Control", "setting": "Trypsin; 180 min", "result": "104% and 99%"}
    ]},
    {"smiles": "CC(C)C[C@H](NC(=O)[C@H](CCCCN)NC(=O)CNC(=O)[C@H](CC(C)C)NC(=O)[C@@H](NC(=O)[C@@H]1CSSC[C@H](N)C(=O)N[C@@H](CO)C(=O)N[C@@H](CC(N)=O)C(=O)N[C@@H](CC(C)C)C(=O)N[C@@H](CO)C(=O)N[C@@H]([C@@H](C)O)C(=O)N1)C(C)C)C(=O)N[C@@H](CO)C(=O)N[C@@H](CCC(N)=O)C(=O)N[C@@H](CCC(=O)O)C(=O)N[C@@H](CC(C)C)C(=O)N[C@@H](Cc1c[nH]cn1)C(=O)N[C@@H](CCCCN)C(=O)N[C@@H](CC(C)C)C(=O)N[C@@H](CCC(N)=O)C(=O)N[C@H](C(=O)N[C@@H](Cc1ccc(O)cc1)C(=O)N1CCC[C@H]1C(=O)N[C@@H](CCCNC(=N)N)C(=O)N[C@H](C(=O)N[C@@H](CC(N)=O)C(=O)N[C@H](C(=O)NCC(=O)N[C@@H](CO)C(=O)NCC(=O)N[C@H](C(=O)N1CCC[C@H]1C(N)=O)[C@@H](C)O)[C@@H](C)O)[C@@H](C)O)[C@@H](C)O", "note": "[Salmon Calcitonin]", "values": [
      {"measurement": "% Remaining Following 0.5 U/mL Chymotrypsin Digest", "setting": "Chymotrypsin; Buffered Formulation, 15 min", "result": "59% and 91% and 92%"},
      {"measurement": "% Remaining Following 0.5 U/mL Chymotrypsin Digest", "setting": "Chymotrypsin; Buffered Formulation, 30 min", "result": "54% and 86% and 87%"},
      {"measurement": "% Remaining Following 0.5 U/mL Chymotrypsin Digest", "setting": "Chymotrypsin; Buffered Formulation, 60 min", "result": "55% and 82% and 85%"},
      {"measurement": "% Remaining, Control", "setting": "Chymotrypsin; Buffered Formulation, 60 min", "result": "102% and 98% and 103%"},
      {"measurement": "% Remaining Following 0.5 U/mL Chymotrypsin Digest", "setting": "Chymotrypsin; Non-Formulated, 15 min", "result": "62% and 35%"},
      {"measurement": "% Remaining Following 0.5 U/mL Chymotrypsin Digest", "setting": "Chymotrypsin; Non-Formulated, 30 min", "result": "30% and 26% and 40% and 13% and 42%"},
      {"measurement": "% Remaining Following 0.5 U/mL Chymotrypsin Digest", "setting": "Chymotrypsin; Non-Formulated, 60 min", "result": "1.6% and 5% and 12% and 1%"},
      {"measurement": "% Remaining following 1 U/mL Trypsin Digest", "setting": "Trypsin; 30 min", "result": "80% and 50%"},
      {"measurement": "% Remaining following 1 U/mL Trypsin Digest", "setting": "Trypsin; 60 min", "result": "66% and 28% and 69% and 76%"},
      {"measurement": "% Remaining following 1 U/mL Trypsin Digest", "setting": "Trypsin; 120 min", "result": "44% and 7% and 46% and 59%"},
      {"measurement": "% Remaining following 1 U/mL Trypsin Digest", "setting": "Trypsin; 180 min", "result": "2% and 31% and 46%"}
    ]}
  ]
}
